Consider eight molecules from PMC2700855 (Proteins, 2009).

T1: RFXAP (UniProt O00287 1-272)
T1 sequence (looked up): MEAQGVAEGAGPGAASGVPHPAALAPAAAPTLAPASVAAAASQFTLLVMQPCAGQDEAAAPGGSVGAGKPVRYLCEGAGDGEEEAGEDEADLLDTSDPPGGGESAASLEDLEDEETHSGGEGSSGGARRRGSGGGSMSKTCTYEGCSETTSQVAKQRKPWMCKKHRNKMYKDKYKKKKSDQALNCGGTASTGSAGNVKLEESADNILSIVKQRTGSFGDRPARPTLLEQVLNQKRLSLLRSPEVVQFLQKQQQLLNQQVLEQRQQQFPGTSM

B1: RFX5(25-90) (domain or fragment, UniProt P48382 25-90, looked up)
chain: GEPTTLLQRLRGTISKAVQNKVEGILQDVQKFSDNDKLYLYLQLPSGPTTGDKSSEPSTLSNEEYM
B2: RFX5(1-330) (domain or fragment, UniProt P48382 1-330, looked up)
chain: MAEDEPDAKSPKTGGRAPPGGAEAGEPTTLLQRLRGTISKAVQNKVEGILQDVQKFSDNDKLYLYLQLPSGPTTGDKSSEPSTLSNEEYMYAYRWIRNHLEEHTDTCLPKQSVYDAYRKYCESLACCRPLSTANFGKIIREIFPDIKARRLGGRGQSKYCYSGIRRKTLVSMPPLPGLDLKGSESPEMGPEVTPAPRDELVEAACALTCDWAERILKRSFSSIVEVARFLLQQHLISARSAHAHVLKAMGLAEEDEHAPRERSSKPKNGLENPEGGAHKKPERLAQPPKDLEARTGAGPLARGERKKSVVESSAPGANNLQVNALVARLP
B3: RFX5(88-330) (domain or fragment, UniProt P48382 88-330, looked up)
chain: EYMYAYRWIRNHLEEHTDTCLPKQSVYDAYRKYCESLACCRPLSTANFGKIIREIFPDIKARRLGGRGQSKYCYSGIRRKTLVSMPPLPGLDLKGSESPEMGPEVTPAPRDELVEAACALTCDWAERILKRSFSSIVEVARFLLQQHLISARSAHAHVLKAMGLAEEDEHAPRERSSKPKNGLENPEGGAHKKPERLAQPPKDLEARTGAGPLARGERKKSVVESSAPGANNLQVNALVARLP
B4: RFXAP(215-272,F217Y) (domain or fragment, UniProt O00287 215-272, looked up)
chain: GSYGDRPARPTLLEQVLNQKRLSLLRSPEVVQFLQKQQQLLNQQVLEQRQQQFPGTSM
B5: RFXB (natural protein, UniProt O14593 1-260, looked up)
chain: MELTQPAEDLIQTQQTPASELGDPEDPGEEAADGSDTVVLSLFPCTPEPVNPEPDASVSSPQAGSSLKHSTTLTNRQRGNEVSALPATLDSLSIHQLAAQGELDQLKEHLRKGDNLVNKPDERGFTPLIWASAFGEIETVRFLLEWGADPHILAKERESALSLASTGGYTDIVGLLLERDVDINIYDWNGGTPLLYAVRGNHVKCVEALLARGADLTTEADSGYTPMDLAVALGYRKVQQVIENHILKLFQSNLVPADPE
B6: RFX5(187-265) (domain or fragment, UniProt P48382 187-265, looked up)
chain: EMGPEVTPAPRDELVEAACALTCDWAERILKRSFSSIVEVARFLLQQHLISARSAHAHVLKAMGLAEEDEHAPRERSSK
B7: RFX5(1-90) (domain or fragment, UniProt P48382 1-90, looked up)
chain: MAEDEPDAKSPKTGGRAPPGGAEAGEPTTLLQRLRGTISKAVQNKVEGILQDVQKFSDNDKLYLYLQLPSGPTTGDKSSEPSTLSNEEYM
B8: RFXB(88-260) (domain or fragment, UniProt O14593 88-260, looked up)
chain: TLDSLSIHQLAAQGELDQLKEHLRKGDNLVNKPDERGFTPLIWASAFGEIETVRFLLEWGADPHILAKERESALSLASTGGYTDIVGLLLERDVDINIYDWNGGTPLLYAVRGNHVKCVEALLARGADLTTEADSGYTPMDLAVALGYRKVQQVIENHILKLFQSNLVPADPE

Series [1] concerns the molecule itself. In words: cross-linking.
Series [2] deals with the molecule itself. Nature of the series: cross-linking. The source holds these as a separate data set.
The series “RFXAP(215-272,F217Y)” concerns the target B4. Nature of the series: SEC-MALS. (In general: In gel filtration, larger molecules generally elute earlier.)
The series “SEC” deals with the molecule itself. Nature of the series: SEC.
For the series “RFXB”, the target named is B5. In words: SEC.
The series “RFX5(25-90)” addresses B1. In words: SEC.
The series “RFXB(88-260)” has as its target B8. Nature of the series: SEC-MALS.
The target in another series is T1, RFXAP. Nature of the series: SEC.
In the series “RFX5(1-330)” the target is B2. Nature of the series: SEC.
The series “SEC-MALS” concerns the molecule itself. Nature of the series: SEC-MALS.
The series “RFX5(88-330)” concerns the target B3. In words: SEC.
In series [3] the target is RFX5(25-90)2•RFXAP(215-272) complex (UniProt P48382). Nature of the series: SEC-MALS. The conditions noted are these: scale: RFXB(88-260) per RFX5(25-90)2•RFXAP(215-272).
The target is the same in series [4]. In words: ITC.

In the case of B1, the “stoichiometry N” value in the series “cross-linking [1]” is 4; in “cross-linking [2]”, 2; with RFXAP(215-272,F217Y), 2 RFX5(25-90) per RFXAP(215-272).

On to B2, for which, in the series “SEC”, the “stoichiometry N” value is 2. For B3, the binding result in the series with RFXB is recorded as “binds”.

With B4, the binding result in the series with RFX5(25-90) and in the series with RFXB(88-260) was “binds” throughout.

As for B5, the binding result with RFXAP and with RFX5(1-330) was “binds” each time. On to B6, for which, in “SEC-MALS”, the “stoichiometry N” value was 2. B7: the binding result with RFXAP is “binds”. For B8, in the series with RFX5(88-330), the binding result is on record as “binds”. Further, the stoichiometry N in series [3] was 1. Further, in series [4], the Kd amounted to 75.5 nM and the stoichiometry N was 1.02.

A word on the stoichiometry N: it is a count of units in the complex or per binding partner. The Kd is the constant that tells how readily two partners part at equilibrium.
